According to US20070274969A1:

What was measured:
[1] = target: human Bub1, endogenous (human) (UniProt O43683); test: cell-based or functional assay
[2] = target: rat Bub1, endogenous (rat); test: cell-based or functional assay

Sequence of human Bub1, endogenous (human) (O43683 whole entry): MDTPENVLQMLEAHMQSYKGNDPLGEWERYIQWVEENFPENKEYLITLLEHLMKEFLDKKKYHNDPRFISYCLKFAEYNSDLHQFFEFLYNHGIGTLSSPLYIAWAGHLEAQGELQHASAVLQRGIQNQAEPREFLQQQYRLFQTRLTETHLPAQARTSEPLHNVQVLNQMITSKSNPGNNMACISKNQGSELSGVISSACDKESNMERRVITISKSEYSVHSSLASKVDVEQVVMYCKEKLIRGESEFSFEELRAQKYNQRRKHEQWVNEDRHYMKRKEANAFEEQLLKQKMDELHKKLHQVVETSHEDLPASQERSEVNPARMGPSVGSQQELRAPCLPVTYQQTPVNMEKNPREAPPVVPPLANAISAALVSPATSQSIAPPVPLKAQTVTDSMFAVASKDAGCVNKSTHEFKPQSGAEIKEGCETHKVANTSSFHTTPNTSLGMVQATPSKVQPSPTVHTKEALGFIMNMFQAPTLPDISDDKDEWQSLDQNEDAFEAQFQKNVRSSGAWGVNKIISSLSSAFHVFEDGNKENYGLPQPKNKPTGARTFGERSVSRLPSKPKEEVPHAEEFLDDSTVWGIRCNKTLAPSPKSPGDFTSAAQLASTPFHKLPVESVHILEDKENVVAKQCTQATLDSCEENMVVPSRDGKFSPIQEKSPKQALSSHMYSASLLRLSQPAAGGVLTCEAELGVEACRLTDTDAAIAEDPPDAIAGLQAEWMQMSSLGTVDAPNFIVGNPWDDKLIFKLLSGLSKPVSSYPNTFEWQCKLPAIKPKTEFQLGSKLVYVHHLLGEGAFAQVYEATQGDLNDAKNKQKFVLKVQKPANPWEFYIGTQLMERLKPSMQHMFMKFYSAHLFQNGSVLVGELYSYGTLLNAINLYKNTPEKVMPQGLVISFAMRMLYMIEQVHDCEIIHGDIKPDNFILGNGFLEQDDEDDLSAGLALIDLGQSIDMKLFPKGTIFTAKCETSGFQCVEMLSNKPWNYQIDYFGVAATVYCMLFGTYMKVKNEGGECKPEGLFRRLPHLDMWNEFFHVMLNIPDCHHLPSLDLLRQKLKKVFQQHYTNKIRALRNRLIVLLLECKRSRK

## SV40 large T antigen, wild-type (from UniProt P03070 1-708)
[1]
  % > 4N cells (endoreduplication), 100 ng/ml nocodazole: 45.7%
  mitotic index (phospho-histone H3 positive cells), nocodazole for 15 hours: 14.6%
[2]
  cells that proceed to anaphase at 24 ng/ml nocodazole, time-lapse microscopy of immortalized rat embryo fibroblasts: 90%
